Changes are numbered by the printed parent chain. Names and notes keep the numbering of the source.
B1: D402N nitroalkane oxidase (enzyme)
chain: MVDFKLSPSQLEARRHAQAFANTVLTKASAEYSTQKDQLSRFQATRPFYREAVRHGLIKAQVPIPLGGTMESLVHESIILEELFAVEPATSITIVATALGLMPVILCDSPSLQEKFLKPFISGEGEPLASLMHSEPNGTANWLQKGGPGLQTTARKVGNEWVISGEKLWPSNSGGWDYKGADLACVVCRVSDDPSKPQDPNVDPATQIAVLLVTRETIANNKKDAYQILGEPELAGHITTSGPHTRFTEFHVPHENLLCTPGLKAQGLVETAFAMSAALVGAMAIGTARAAFEEALVFAKSDTRGGSKHIIEHQSVADKLIDCKIRLETSRLLVWKAVTTLEDEALEWKVKLEMAMQTKIYTTDVAVECVIDAMKAVGMKSYAKDMSFPRLLNEVMCYPLFNGGNIGLRRRQMQRVMALEDYEPWAATYGSSKVDKSRL
B2: S276A nitroalkane oxidase (enzyme)
chain: B1 chain with S276A, N402D

Target: the molecule itself
Assay: crystal structure

Row | Protein | stoichiometry N [subunits]
1 | B1 | 4
2 | B2 | 4

From publication PMC2754721 (Biochemistry, 2009)
